Assay results taken from patent US20080050387A1, “Non-Androgen Dependent Roles for Androgen Receptor and Non-Androgen Related Inhibitors of Androgen Receptor” (priority 2003, published 2008).
“Also recorded” adds a separate entry of the source.

Key:
AR N/C interaction = assay: AR N/C interaction, mammalian two-hybrid assay in COS-1 cells; assay type: cell-based, human; settings: 10 nM DHT
Protocol: (§1) H1299 and COS-1 cells were maintained in Dulbecco's modified Eagle's medium (DMEM) (Life Technologies, Inc.) supplemented with 10% heat inactivated fetal bovine serum (FBS). LNCap cells were maintained in RPMI 1640 supplemented with […]. All media contain 100 units penicillin, 100 μg/ml streptomycin and 2 mM L-glutamine. Cells were seeded to a density of 50-60% confluency for transfection. In transfections where H1299 and COS-1 cells were used, the calcium phosphate precipitation method was used as described (Pan H J, et al. 1999. Endocrine 11:321-327) unless otherwise noted. […] In other reporter gene assays, where ligand treatment was required, cell culture media were changed to DMEM containing 10% charcoal-dextran-stripped FBS (CD-FBS) 2 h before transfection. After 16-18 h transfection, cells were treated with medium containing either vehicle or ligands for another 20-24 h and then cells were harvested. With LNCap cells transfection, the cells were treated with fresh RPMI 1640 containing 10% CD-FBS before transfection with SuperFect performed according to the manufacturer's protocol (Qiagen). After transfection, cells were allowed to recover in fresh RPMI 1640 containing 10% CD-FBS for 8-12 h, and then treated with either vehicle or ligands for another 20-24 h before harvesting. Each experiment was repeated at least three times.

AR nuclear translocation = target: T1, AR nuclear translocation (Homo sapiens, UniProt P10275, DEL79-80/DUP473-473); assay: Subcellular distribution of AR in COS-1 cells (immunofluorescence staining, subcellular fractionation); assay type: cell-based
T1 construct: expressed in transfected cells; host or cells: COS-1
T1 sequence (P10275 with tags, fused parts or gaps DEL79-80/DUP473-473): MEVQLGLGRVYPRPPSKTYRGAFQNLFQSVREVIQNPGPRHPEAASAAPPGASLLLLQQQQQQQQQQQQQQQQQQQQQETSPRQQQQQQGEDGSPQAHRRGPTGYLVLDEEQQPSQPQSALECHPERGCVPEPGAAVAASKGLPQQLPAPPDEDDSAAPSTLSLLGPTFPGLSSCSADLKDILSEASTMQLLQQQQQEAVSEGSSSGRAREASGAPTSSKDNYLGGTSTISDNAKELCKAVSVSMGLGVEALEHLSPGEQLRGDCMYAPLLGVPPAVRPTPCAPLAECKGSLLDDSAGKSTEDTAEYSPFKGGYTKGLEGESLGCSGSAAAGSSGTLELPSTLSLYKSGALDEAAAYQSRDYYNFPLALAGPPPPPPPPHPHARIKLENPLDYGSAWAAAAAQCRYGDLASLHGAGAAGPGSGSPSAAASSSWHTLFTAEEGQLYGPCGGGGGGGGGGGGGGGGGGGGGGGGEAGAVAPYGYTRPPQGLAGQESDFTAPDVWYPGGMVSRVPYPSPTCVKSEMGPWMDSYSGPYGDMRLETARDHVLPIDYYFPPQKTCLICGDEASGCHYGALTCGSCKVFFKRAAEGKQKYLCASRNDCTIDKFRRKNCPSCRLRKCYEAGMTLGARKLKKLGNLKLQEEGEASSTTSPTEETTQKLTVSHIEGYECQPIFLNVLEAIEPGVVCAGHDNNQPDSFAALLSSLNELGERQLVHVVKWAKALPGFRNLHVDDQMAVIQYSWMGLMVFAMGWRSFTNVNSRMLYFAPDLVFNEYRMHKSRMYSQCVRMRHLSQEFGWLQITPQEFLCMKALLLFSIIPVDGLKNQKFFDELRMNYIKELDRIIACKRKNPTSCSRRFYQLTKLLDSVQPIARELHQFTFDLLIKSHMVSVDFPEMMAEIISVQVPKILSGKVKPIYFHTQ
Protocol: COS-1 cells were seeded on two-well Lab Tek Chamber slides (Nalge) in DMEM containing 10% CD-FBS 18 h before transfection. DNA was transfected by using FuGENE 6 Transfection Reagent (Boehringer Mannheim). After transfection, cells were treated with either 10 nM DHT or vehicle for 12 h. Then cells were fixed with fixation solution (3% paraformaldehyde and 10% sucrose in PBS) for 20 min on ice, followed by permeabilization with methanol for 10 min on ice. Slides were washed and blocked with 2% BSA in PBS for 15 min at room temperature. Then the cells were stained with 1 μg/ml rabbit polyclonal anti-AR antibody (NH27) and 1 μg/ml mouse monoclonal anti-His antibody (Santa Cruz Biotechnology) sequentially at room temperature for 1 h each. After each first Ab incubation, cells were washed and incubated with TexRed-conjugated goat anti-rabbit IgG and FITC-conjugated goat anti-mouse IgG (ICN), respectively. Stained slides were washed and mounted (Vectashield; Vector Laboratories). Fluorescence images were photographed under 400-fold magnification with a confocal microscope.
To prepare cytosolic and nuclear fractions of cells, cell monolayers were harvested with ice-cold PBS and pelleted. Cold buffer A (10 mM HEPES-KOH/pH 7.9 at 4° C., 1.5 mM MgCl2, 10 mM KCl, 0.5 mM dithiothreitol, 0.2 mM PMSF) equal to 5 times cell volume was used to resuspend the cells. […]

[1] = test system: PSA expression in LNCaP cells; assay: DHT induced PSA expression in LNCaP cells transfected with ARA67 (Western blot); assay type: cell-based, human; settings: pSG5-ARA67 transfected
Protocol: as §1, with “times. […]” for “times.”

ER = ER transactivation reporter gene assay in H1299 cells with ARA67; assay type: cell-based; settings: 500 ng pSG5-ARA67, ERE-Luc, cognate ligand
Protocol: as §1

AR N/C interaction, sequence (P10275 1-559 partner limits assumed, one chain of several): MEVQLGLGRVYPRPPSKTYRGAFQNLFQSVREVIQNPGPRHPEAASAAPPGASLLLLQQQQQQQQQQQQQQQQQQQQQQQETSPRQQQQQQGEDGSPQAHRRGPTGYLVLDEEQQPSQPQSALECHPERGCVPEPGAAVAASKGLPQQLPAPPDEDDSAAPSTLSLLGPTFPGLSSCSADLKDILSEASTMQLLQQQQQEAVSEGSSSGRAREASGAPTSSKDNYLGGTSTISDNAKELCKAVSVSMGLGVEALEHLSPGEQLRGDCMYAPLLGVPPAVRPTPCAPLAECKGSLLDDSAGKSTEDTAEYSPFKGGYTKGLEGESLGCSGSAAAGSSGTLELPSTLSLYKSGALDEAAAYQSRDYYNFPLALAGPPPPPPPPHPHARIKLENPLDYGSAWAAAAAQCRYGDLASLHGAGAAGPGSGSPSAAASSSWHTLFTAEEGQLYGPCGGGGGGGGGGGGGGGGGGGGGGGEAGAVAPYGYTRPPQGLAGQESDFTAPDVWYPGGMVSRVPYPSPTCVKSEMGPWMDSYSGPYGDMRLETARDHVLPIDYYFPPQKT

B1: ARA67: AR N-terminal interacting protein of 585 amino acids (SEQ ID NO:1), matches PAT1; functions as a repressor of AR (protein)
chain: MAAVELEWIPETLYNTAISAVVDNYIRSRRDIRSLPENIQFDVYYKLYQQGRLCQLGSEFCELEVFAKVLRALDKRHLLHHCFQALMDHGVKVASVLAYSFSRRCSYIAESDAAVKEKAIQVGFVLGGFLSDAGWYSDAEKVFLSCLQLCTLHDEMLHWFRAVECCVRLLHVRNGNCKYHLGEETFKLAQTYMDKLSKHGQQANKAALYGELCALLFAKSHYDEAYKWCIEAMKEITAGLPVKVVVDVLRQASKACVVKREFKKAEQLIKHAVYLARDHFGSKHPKYSDTLLDYGFYLLNVDNICQSVAIYQAALDIRQSVFGGKNIHVATAHEDLAYSSYVHQYSSGKFDNALFHAERAIGIITHILPEDHLLLASSKRVKALILEEIAIDCHNKETEQRLLQEAHDLHLSSLQLAKKAFGEFNVQTAKHYGNLGRLYQSMRKFKEAEEMHIKAIQIKEQLLGQEDYEVALSVGHLASLYNYDMNQYENAEKLYLRSIAIGKKLFGEGYSGLEYDYRGLIKLYNSIGNYEKVFEYHNVLSNWNRLRDRQYSVTDALEDVSTSPQSTEEVVQSFLISQNVEGPSC
With B1 the “DHT promoted AR N/C interaction” value (AR N/C interaction) was “slightly enhanced”, the “AR level in nuclear fraction” value (AR nuclear translocation; Western blot, after DHT treatment) was “decreased” and the “nuclear translocation of AR” value (AR nuclear translocation; immunofluorescence staining, DHT treatment) was “block the nuclear translocation”. For the same molecule, the “DHT induced PSA expression” value [1] was “decreased” and the “effect on ER transactivation” value (ER) was “nearly unaffected; also recorded: little effect”.
